Test results as given in patent US20240400677A1 (ELECTRA THERAPEUTICS, published 2024).
Changes are numbered by the printed parent chain. Blank lines part the entries; values can stand above or below the binder they belong to.

Legend:
[1] = target: T1, human SIRPβ1 on CHO cells (co-transfected with DAP12) (human, UniProt O00241 30-398); assay: flow cytometry
T1 construct: whole, on cells; co-transfected with DAP12; also called Human SIRPβ1 CHO

[2] = target: T2, human SIRPγ-His monomer protein (human, UniProt Q9P1W8 29-360); assay: BLI Octet, V5-scFv PPE captured, SIRP-His 500 nM
T2 construct: also called hSIRPγ
T2 sequence (Q9P1W8 29-360 limits assumed): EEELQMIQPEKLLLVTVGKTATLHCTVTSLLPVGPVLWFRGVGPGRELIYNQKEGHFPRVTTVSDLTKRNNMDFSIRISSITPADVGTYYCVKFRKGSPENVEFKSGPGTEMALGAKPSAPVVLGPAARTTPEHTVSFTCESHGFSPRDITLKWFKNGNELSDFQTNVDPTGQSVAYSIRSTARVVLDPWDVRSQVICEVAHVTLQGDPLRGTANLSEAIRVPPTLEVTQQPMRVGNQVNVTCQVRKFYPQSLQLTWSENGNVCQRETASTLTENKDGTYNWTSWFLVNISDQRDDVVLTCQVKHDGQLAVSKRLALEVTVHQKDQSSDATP

[3] = target: T3, human SIRPγ on stably transfected CHO cells (human, UniProt Q9P1W8 29-387); assay: flow cytometry, myc-scFv PPE
T3 construct: also called Human SIRPγ CHO
T3 sequence (Q9P1W8 29-387 limits assumed): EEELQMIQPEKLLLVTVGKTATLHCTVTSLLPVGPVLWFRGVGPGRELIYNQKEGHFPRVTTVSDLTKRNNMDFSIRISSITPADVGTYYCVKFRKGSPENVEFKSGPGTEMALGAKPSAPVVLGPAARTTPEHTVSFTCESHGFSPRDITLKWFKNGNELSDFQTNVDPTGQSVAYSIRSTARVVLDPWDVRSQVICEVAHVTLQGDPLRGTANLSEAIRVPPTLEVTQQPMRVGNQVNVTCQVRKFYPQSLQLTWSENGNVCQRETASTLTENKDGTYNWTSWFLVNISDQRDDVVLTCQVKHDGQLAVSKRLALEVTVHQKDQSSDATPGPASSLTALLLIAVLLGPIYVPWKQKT
Procedure: (§1) Selected antibodies were tested for binding to stably transfected human SIRPγ, SIRPαV1, or SIRPβ1 (co-transfected with DAP12) Chinese hamster ovary (CHO) cells via flow cytometry. A titration of select antibodies was added to the cells and detected using a fluorescently labelled secondary anti-rat IgG antibody or anti-human IgG antibody. Graphs depict the median fluorescence intensity (MFI) at each concentration. FIGS. 5A and 5G show the binding curves of select antibodies to human SIRPγ, cynomolgus monkey SIRPγ, human SIRPα, cynomolgus monkey SIRPα, human SIRPβ1, or cynomolgus monkey SIRPβl-expressing CHO cells detected using an anti-rat IgG antibody. FIGS. 5B-5F and 5H-5L show the binding curves of select antibodies to human SIRPγ, cynomolgus monkey SIRPγ, human SIRPα, cynomolgus monkey SIRPα, human SIRPβ1, or cynomolgus monkey SIRPβ1-expressing CHO cells detected using an anti-human IgG antibody. […] For select antibodies, each myc-tagged SIRPγ scFv antibody as crude PPE was incubated with each of the SIRP-expressing cell lines stated above along with the parental CHO-K1 cell line. […] Fold change value <2.0 is considered a non-binder.

[4] = target: T4, cynomolgus monkey SIRPγ on CHO cells (cynomolgus monkey, UniProt Q9P1W8 29-386 (human entry)); assay: flow cytometry, myc-scFv PPE
T4 construct: also called Cyno SIRPγ CHO
T4 chain: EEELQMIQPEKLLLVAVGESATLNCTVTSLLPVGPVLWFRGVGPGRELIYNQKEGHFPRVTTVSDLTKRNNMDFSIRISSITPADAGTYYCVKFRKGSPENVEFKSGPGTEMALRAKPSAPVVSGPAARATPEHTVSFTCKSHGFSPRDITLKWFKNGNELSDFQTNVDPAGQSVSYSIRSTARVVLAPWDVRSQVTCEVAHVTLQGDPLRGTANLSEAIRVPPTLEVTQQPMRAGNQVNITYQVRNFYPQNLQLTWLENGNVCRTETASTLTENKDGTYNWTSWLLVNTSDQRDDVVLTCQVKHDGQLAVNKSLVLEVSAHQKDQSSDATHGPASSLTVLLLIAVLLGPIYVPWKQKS
Procedure: as §1

[5] = target: T5, cynomolgus monkey SIRPα on CHO cells (cynomolgus monkey, UniProt A0A2K5VYQ9 31-507); assay: flow cytometry
T5 construct: whole, on cells; also called Cyno SIRPα CHO
T5 sequence: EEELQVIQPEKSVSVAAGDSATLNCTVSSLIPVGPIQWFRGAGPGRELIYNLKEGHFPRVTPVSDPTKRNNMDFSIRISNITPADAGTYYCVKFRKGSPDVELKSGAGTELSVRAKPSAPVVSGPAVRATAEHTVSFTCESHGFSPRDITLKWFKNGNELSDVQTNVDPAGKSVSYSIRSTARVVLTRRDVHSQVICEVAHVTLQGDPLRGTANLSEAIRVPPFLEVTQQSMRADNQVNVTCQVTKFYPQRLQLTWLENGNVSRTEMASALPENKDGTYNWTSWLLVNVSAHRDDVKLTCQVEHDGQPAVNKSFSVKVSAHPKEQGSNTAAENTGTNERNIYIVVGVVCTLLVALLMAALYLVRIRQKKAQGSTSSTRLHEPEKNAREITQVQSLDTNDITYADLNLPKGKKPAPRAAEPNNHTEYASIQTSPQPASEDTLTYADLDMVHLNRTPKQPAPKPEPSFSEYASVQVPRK

T1 sequence (O00241 30-398): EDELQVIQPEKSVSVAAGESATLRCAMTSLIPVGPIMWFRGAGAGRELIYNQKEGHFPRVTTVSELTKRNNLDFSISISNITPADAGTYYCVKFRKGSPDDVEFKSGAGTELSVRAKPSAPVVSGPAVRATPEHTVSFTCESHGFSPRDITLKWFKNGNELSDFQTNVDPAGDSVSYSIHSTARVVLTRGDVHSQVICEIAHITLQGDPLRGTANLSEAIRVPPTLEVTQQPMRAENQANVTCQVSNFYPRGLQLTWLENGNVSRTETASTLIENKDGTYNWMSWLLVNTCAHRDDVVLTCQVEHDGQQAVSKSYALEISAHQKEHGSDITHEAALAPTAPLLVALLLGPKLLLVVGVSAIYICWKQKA

binding result [1]: no binding (tested: fold change <2.0)
kdis [2]: 0.001 to 0.01 s⁻¹
MFI fold change over parental CHO [3]: 19.6 fold
MFI fold change over parental CHO [4]: 18 fold
B1: Antibody 14 (scFv, V domains shown)
VH: QVQLVQSGAEVKKPGASVKVSCKASGYTFTSYYMHWVRQAPGQGLEWMGWVDPNNGDTGYAQKFQGRVTMTRDTSTSTVYMELSSLRSEDTAVYYCARDNWGSLDVWGKGTTVTVSS
VL: DIVMTQSPLSLPVTPGEPASISCRSSQSLLHSNGYNYLDWYLQKPGQSPQLLIYAASTLQSGVPDRFSGSGSGTDFTLKISRVEAEDVGVYYCMQGLQTLYSFGQGTKLEIK
notes: scFv in crude PPE, V5/myc-tagged

binding result [5]: no binding (tested: fold change <2.0)
binding result [1]: no binding (tested: fold change <2.0)
kdis [2]: 0.001 to 0.01 s⁻¹
MFI fold change over parental CHO [3]: 18.7 fold
MFI fold change over parental CHO [4]: 12 fold
B2: Antibody 34 (scFv, V domains shown)
VH: QVQLVQSGAEVKKPGASVKVSCKASGYTFSNYYMHWVRQAPGQGLEWMGWMNPNSGNTGYAQKFQGRVTMTRDTSTSTVYMELSSLRSEDTAVYYCARASMYSSSGFDYWGQGTLVTVSS
VL: B1 VL with A55L, L59R, Q60A, S61P, L97S, Q98H, T99W, L100P, Y101P, K108R
notes: as for B1

binding result [5]: no binding (tested: fold change <2.0)
binding result [1]: no binding (tested: fold change <2.0)
MFI fold change over parental CHO [3]: 33 fold
MFI fold change over parental CHO [4]: 16.3 fold
B3: Antibody 16 (scFv, V domains shown)
VH: QVQLVQSGAEVKKPGASVKVSCKASGYTFTSYYMHWVRQAPGQGLEWMGWINPNSGNAGFAQKFQGRVTMTRDTSTSTVYMELSSLRSEDTAVYYCARGPVYSYGPFDYWGQGTLVTVSS
VL: DIQMTQSPSSLSASVGDRVTITCRASQGISTYLAWYQQKPGKAPKLLIYAASTLQSGVPSRFSGSGSGTDFTLTISSLQPEDFATYYCQQSHSAPITFGQGTKVEIK
notes: as for B1

binding result [5]: no binding (tested: fold change <2.0)
binding result [1]: no binding (tested: fold change <2.0)
kdis [2]: 0.001 to 0.01 s⁻¹
MFI fold change over parental CHO [3]: 20 fold
MFI fold change over parental CHO [4]: 8.02 fold
B4: Antibody 33 (scFv, V domains shown)
VH: QVQLVQSGAEVKKPGASVKVSCKASGYTFTSYYMHWVRQAPGQGLEWMGWMNPNSDNTGYAQKFQGRVTMTRDTSTSTVYMELSSLRSEDTAVYYCARVGVGYGYYYYGMDVWGQGTTVTVSS
VL: B3 VL with S26G, G28S, S30G, T31D, A34N, T53S, H92Y, A94T, I96W
notes: as for B1

binding result [5]: no binding (tested: fold change <2.0)
binding result [1]: no binding (tested: fold change <2.0)
kdis [2]: 0.001 to 0.01 s⁻¹
MFI fold change over parental CHO [3]: 51.4 fold
MFI fold change over parental CHO [4]: 96.1 fold
B5: Antibody 21 (scFv, V domains shown)
VH: EVQLLESGGGLVQPGGSLRLSCAASGFTLGSYWMHWVRQAPGKGLEWVSLISWDGGSTYYADSVKGRFTISRDNSKNTLYLQMNSLRAEDTAVYYCAKGPWVGYSGYDLNYYYYGMDVWGQGTTVTVSS
VL: DIQMTQSPSSLSASVGDRVTITCRASQDIRRALAWYQQKPGKAPKLLIYAASSLQSGVPSRFSGSGSGTDFTLTISSLQPEDFATYYCLQHNSYPPTFGQGTKLEIK
notes: as for B1

binding result [5]: no binding (tested: fold change <2.0)
binding result [1]: no binding (tested: fold change <2.0)
kdis [2]: < 0.001 s⁻¹
MFI fold change over parental CHO [3]: 10.2 fold
MFI fold change over parental CHO [4]: 9.63 fold
B6: Antibody 32 (scFv, V domains shown)
VH: QVQLVQSGAEVKKPGASVKVSCKASGYTFTSYYMYWVRQAPGQGLEWMGWINPNSGNTGYAQKFQGRVTMTRDTSTSTVYMELSSLRSEDTAVYYCAKDRRRGVGLAAAGTSAFDIWGQGTMVTVSS
VL: B3 VL with G28S, T31N, Y32W, T53S, H92Y, A94T, I96Y, V104L
notes: as for B1

binding result [5]: no binding (tested: fold change <2.0)
binding result [1]: no binding (tested: fold change <2.0)
kdis [2]: 0.001 to 0.01 s⁻¹
MFI fold change over parental CHO [3]: 23.2 fold
MFI fold change over parental CHO [4]: 5.81 fold
B7: Antibody 27 (scFv, V domains shown)
VH: QVQLVQSGAEVKKPGASVKVSCKASGYTFTSHDINWVRQAPGQGLEWMGWMNANNGNAGYAQKFQGRVTMTRDTSTSTVYMELSSLRSEDTAVYYCAKDLSPSSSWSTYYYYYGMDVWGQGTMVTVSS
VL: B3 VL with G28S, T31N, Y32L, T53S, H92Y, A94T, I96Y, V104L
notes: as for B1

binding result [5]: no binding (tested: fold change <2.0)
binding result [1]: no binding (tested: fold change <2.0)
kdis [2]: > 0.01 s⁻¹
MFI fold change over parental CHO [3]: 11.1 fold
MFI fold change over parental CHO [4]: 9.85 fold
B8: Antibody 24 (scFv, V domains shown)
VH: QVQLVQSGAEVKKPGASVKVSCKASGYTFTGYYMHWVRQAPGQGLEWMGIINPSGGSTNYAQKFQGRVTMTRDTSTSTVYMELSSLRSEDTAVYYCARGPIGYGMDVWGQGTLVTVSS
VL: B5 VL with D28G, R30G, R31N, A32D, A34G, S53N, Q55E, S56T, N92H, P96F
notes: as for B1

binding result [5]: no binding (tested: fold change <2.0)
binding result [1]: no binding (tested: fold change <2.0)
kdis [2]: < 0.001 s⁻¹
MFI fold change over parental CHO [3]: 8.87 fold
MFI fold change over parental CHO [4]: 10.5 fold
B9: Antibody 20 (scFv, V domains shown)
VH: QVQLVQSGAEVKKPGASVKVSCKASGYTFTSYDINWVRQAPGQGLEWMGWMNPNSGNTGYAQKFQGRVTMTRDTSTSTVYMELSSLRSEDTAVYYCARESYAYCSSTSCYDAFDIWGQGTMVTVSS
VL: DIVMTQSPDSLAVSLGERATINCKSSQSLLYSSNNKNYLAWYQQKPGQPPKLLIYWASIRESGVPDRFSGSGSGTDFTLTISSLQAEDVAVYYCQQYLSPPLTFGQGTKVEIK
notes: as for B1

binding result [5]: no binding (tested: fold change <2.0)
kdis [2]: 0.001 to 0.01 s⁻¹
MFI fold change over parental CHO [3]: 18.3 fold
MFI fold change over parental CHO [4]: 12.8 fold
B10: Antibody 35 (scFv, V domains shown)
VH: QVQLVQSGAEVKKPGASVKVSCKASGYTFTSYYIHWVRQAPGQGLEWMGTINPSGGSTSYAQKFQGRVTMTRDTSTSTVYMELSSLRSEDTAVYYCARETSRWLRDYYYGMDVWGQGTTVTVSS
VL: DIVMTQSPLSLPVTPGEPASISCRSSQSLLHSNGYNYLDWYLQKPGQSPQLLIYDASSLESGVPDRFSGSGSGTDFTLKISRVEAEDVGVYYCMQGTHWPLTFGGGTKVEIK
notes: as for B1

binding result [5]: no binding (tested: fold change <2.0)
binding result [1]: no binding (tested: fold change <2.0)
kdis [2]: 0.001 to 0.01 s⁻¹
MFI fold change over parental CHO [3]: 10.4 fold
MFI fold change over parental CHO [4]: 6.87 fold
B11: Antibody 9 (scFv, V domains shown)
VH: QVQLVQSGAEVKKPGASVKVSCKASGYSFSDYYMHWVRQAPGQGLEWMGWMSPNSGNTGYAQKFQGRVTMTRDTSTSTVYMELSSLRSEDTAVYYCARQREEYGHYYYGMDVWGQGTMVTVSS
VL: EIVMTQSPATLSVSPGERATLSCRASQSLGSTYLAWYQQKPGQAPRLLIYGASTRATGIPARFSGSGSGTEFTLTISSLQSEDFAVYYCQQYYSSPPTFGQGTKVEIK
notes: as for B1

binding result [5]: no binding (tested: fold change <2.0)
binding result [1]: no binding (tested: fold change <2.0)
kdis [2]: 0.001 to 0.01 s⁻¹
MFI fold change over parental CHO [3]: 11.4 fold
MFI fold change over parental CHO [4]: 13 fold
B12: Antibody 29 (scFv, V domains shown)
VH: QVQLVQSGAEVKKPGASVKVSCKASGGTFSSYAISWVRQAPGQGLEWMGIINPSSSSTGYAQKFQGRVTMTRDTSTSTVYMELSSLRSEDTAVYYCARAGYYDSSGYYYSPYYGMDVWGQGTTVTVSS
VL: B11 VL with L29I, G30S, S31G, T32S, Y93G, S95F, P97F, Q101P, E106D
notes: as for B1
